Consider ten molecules from patent US20220025008A1 (FAPON BIOTECH, published 2022).

In general, Kd refers to the concentration at which binding is half-saturated.

T1: Recombinant NT antigen (N-terminal pro-brain natriuretic peptide, NT-proBNP) (human, UniProt P16860 27-102)
T1 construct: domain: N-terminal pro-brain natriuretic peptide (NT-proBNP); also called recombinant NT protein; N-terminal pro-B-type natriuretic peptide
T1 sequence (looked up): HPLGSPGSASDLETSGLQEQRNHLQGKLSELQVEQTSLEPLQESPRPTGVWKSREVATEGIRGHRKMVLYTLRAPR

B1: Mutation 1 (antibody, V domains shown)
VH: QVRLQESGPSQVKPAQTLSLTCAISGFSITTYYIDWVRHTPGKPPEWLAQMTKDGNAVHQPTIRSRLSITRDTSKSQVFLKLTGVTTEDTAVYYCVRGIIDWGPGLLVTVSS
VL: QAVLTQPSSVSRSLGQTVSITCSGSSDQVGFGDYVNWFQLIPGSAPKTLIFGATSRIRGVPDRFSGSRSGNTATLTINSLQAEDEADYYCGSPNSRGGYVFGSGTRLTVLS
notes: also called mutant 1 antibody
B2: WT 1-5 (antibody)
heavy: QVRLQESGPSQVKPAQTLSLTCAISGPSLTTYYLDWVRHTPGKPPEWLAQMTKDANAVHNPTVRSRLSITRDTSKSQVFLKLTGVTTEDTAVYYCVKGLIDFGPGLLVTVSSASTTPPKVYPLTSCCGDTSSSIVTLGCLVSSYMPEPVTVTWNSGALTSGVHTFPAILQSSGLYSLSSVVTVPASTSGAQTFICNVAHPASSTKVDKRVEPGCPDPCKHCRCPPPELPGGPSVFIFPPKPKDTLTISGTPEVTCVVVDVGQDDPEVQFSWFVDNVEVRTARTKPREEQFNSTFRVVSALPIQHQDWTGGKEFKCKVHNEGLPAPIVRTISRTKGQAREPQVYVLAPPQEELSKSTLSVTCLVTGFYPDYIAVEWQKNGQPESEDKYGTTTSQLDADGSYFLYSRLRVDKNSWQEGDTYACVVMHEALHNHYTQKSISKPPGK
light: QAVLTQPSSVSRSLGQTVSITCSGSSDQVGPGDYLNWFQLIPGSAPKTLIFAASSRIRGVPDRFSGSRSGNTATLTINSLQAEDEADYYCGSANSRNYVWGSGTRLTVLSQPKSAPSVTLFPPSKEELDTNKATVVCLISDFYPGSVNVVWKADGSTINQNVKTTQASKQSNSKYAASSYLTLTGSEWKSKSSYTCEVTHEGSTVTKTVKPSECS
B3: Mutation 1-3 (antibody)
heavy: QVRLQESGPSQVKPAQTLSLTCAISGFSLTTYYIDWVRHTPGKPPEWLAQMTKDGNAVHNPTLRSRLSITRDTSKSQVFLKLTGVTTEDTAVYYCVRGLIDFGPGLLVTVSSASTTPPKVYPLTSCCGDTSSSIVTLGCLVSSYMPEPVTVTWNSGALTSGVHTFPAILQSSGLYSLSSVVTVPASTSGAQTFICNVAHPASSTKVDKRVEPGCPDPCKHCRCPPPELPGGPSVFIFPPKPKDTLTISGTPEVTCVVVDVGQDDPEVQFSWFVDNVEVRTARTKPREEQFNSTFRVVSALPIQHQDWTGGKEFKCKVHNEGLPAPIVRTISRTKGQAREPQVYVLAPPQEELSKSTLSVTCLVTGFYPDYIAVEWQKNGQPESEDKYGTTTSQLDADGSYFLYSRLRVDKNSWQEGDTYACVVMHEALHNHYTQKSISKPPGK
light: QAVLTQPSSVSRSLGQTVSITCSGSSDNVGFGDYVNWFQLIPGSAPKTLIFGAYSRIRGVPDRFSGSRSGNTATLTINSLQAEDEADYYCGSANSRNYVFGSGTRLTVLSQPKSAPSVTLFPPSKEELDTNKATVVCLISDFYPGSVNVVWKADGSTINQNVKTTQASKQSNSKYAASSYLTLTGSEWKSKSSYTCEVTHEGSTVTKTVKPSECS
B4: Mutation 1-13 (antibody)
heavy: QVRLQESGPSQVKPAQTLSLTCAISGFSLTTYYLDWVRHTPGKPPEWLAQMTKDGNAVHNPTIRSRLSITRDTSKSQVFLKLTGVTTEDTAVYYCVRGIIDFGPGLLVTVSSASTTPPKVYPLTSCCGDTSSSIVTLGCLVSSYMPEPVTVTWNSGALTSGVHTFPAILQSSGLYSLSSVVTVPASTSGAQTFICNVAHPASSTKVDKRVEPGCPDPCKHCRCPPPELPGGPSVFIFPPKPKDTLTISGTPEVTCVVVDVGQDDPEVQFSWFVDNVEVRTARTKPREEQFNSTFRVVSALPIQHQDWTGGKEFKCKVHNEGLPAPIVRTISRTKGQAREPQVYVLAPPQEELSKSTLSVTCLVTGFYPDYIAVEWQKNGQPESEDKYGTTTSQLDADGSYFLYSRLRVDKNSWQEGDTYACVVMHEALHNHYTQKSISKPPGK
light: QAVLTQPSSVSRSLGQTVSITCSGSSDQVGFGDYLNWFQLIPGSAPKTLIFGAYSRLRGVPDRFSGSRSGNTATLTINSLQAEDEADYYCGSPNSRNYVFGSGTRLTVLSQPKSAPSVTLFPPSKEELDTNKATVVCLISDFYPGSVNVVWKADGSTINQNVKTTQASKQSNSKYAASSYLTLTGSEWKSKSSYTCEVTHEGSTVTKTVKPSECS
B5: Mutation 1-25 (antibody)
heavy: QVRLQESGPSQVKPAQTLSLTCAISGFSVTTYYLDWVRHTPGKPPEWLAQMTKDGNAVHNPTIRSRLSITRDTSKSQVFLKLTGVTTEDTAVYYCVRGIIDFGPGLLVTVSSASTTPPKVYPLTSCCGDTSSSIVTLGCLVSSYMPEPVTVTWNSGALTSGVHTFPAILQSSGLYSLSSVVTVPASTSGAQTFICNVAHPASSTKVDKRVEPGCPDPCKHCRCPPPELPGGPSVFIFPPKPKDTLTISGTPEVTCVVVDVGQDDPEVQFSWFVDNVEVRTARTKPREEQFNSTFRVVSALPIQHQDWTGGKEFKCKVHNEGLPAPIVRTISRTKGQAREPQVYVLAPPQEELSKSTLSVTCLVTGFYPDYIAVEWQKNGQPESEDKYGTTTSQLDADGSYFLYSRLRVDKNSWQEGDTYACVVMHEALHNHYTQKSISKPPGK
light: QAVLTQPSSVSRSLGQTVSITCSGSSDQVGFGDYLNWFQLIPGSAPKTLIFGASSRLRGVPDRFSGSRSGNTATLTINSLQAEDEADYYCGSPNSRNYVFGSGTRLTVLSQPKSAPSVTLFPPSKEELDTNKATVVCLISDFYPGSVNVVWKADGSTINQNVKTTQASKQSNSKYAASSYLTLTGSEWKSKSSYTCEVTHEGSTVTKTVKPSECS
B6: Mutation 1-7 (antibody)
heavy: QVRLQESGPSQVKPAQTLSLTCAISGFSVTTYYLDWVRHTPGKPPEWLAQMTKDGNAVHQPTVRSRLSITRDTSKSQVFLKLTGVTTEDTAVYYCVRGIIDFGPGLLVTVSSASTTPPKVYPLTSCCGDTSSSIVTLGCLVSSYMPEPVTVTWNSGALTSGVHTFPAILQSSGLYSLSSVVTVPASTSGAQTFICNVAHPASSTKVDKRVEPGCPDPCKHCRCPPPELPGGPSVFIFPPKPKDTLTISGTPEVTCVVVDVGQDDPEVQFSWFVDNVEVRTARTKPREEQFNSTFRVVSALPIQHQDWTGGKEFKCKVHNEGLPAPIVRTISRTKGQAREPQVYVLAPPQEELSKSTLSVTCLVTGFYPDYIAVEWQKNGQPESEDKYGTTTSQLDADGSYFLYSRLRVDKNSWQEGDTYACVVMHEALHNHYTQKSISKPPGK
light: QAVLTQPSSVSRSLGQTVSITCSGSSDNVGFGDYLNWFQLIPGSAPKTLIFGASSRLRGVPDRFSGSRSGNTATLTINSLQAEDEADYYCGSGNSRNYVFGSGTRLTVLSQPKSAPSVTLFPPSKEELDTNKATVVCLISDFYPGSVNVVWKADGSTINQNVKTTQASKQSNSKYAASSYLTLTGSEWKSKSSYTCEVTHEGSTVTKTVKPSECS
B7: Mutation 1-22 (antibody, V domains shown)
VH: QVRLQESGPSQVKPAQTLSLTCAISGFSLTTYYLDWVRHTPGKPPEWLAQMTKDGNAVHNPTIRSRLSITRDTSKSQVFLKLTGVTTEDTAVYYCVRGVIDWGPGLLVTVSS
VL: QAVLTQPSSVSRSLGQTVSITCSGSSDQVGFGDYLNWFQLIPGSAPKTLIFGAYSRLRGVPDRFSGSRSGNTATLTINSLQAEDEADYYCGSANSRNYVFGSGTRLTVLS
B8: Mutation 1-15 (antibody)
heavy: QVRLQESGPSQVKPAQTLSLTCAISGFSVTTYYIDWVRHTPGKPPEWLAQMTKDGNAVHNPTLRSRLSITRDTSKSQVFLKLTGVTTEDTAVYYCVRGLIDFGPGLLVTVSSASTTPPKVYPLTSCCGDTSSSIVTLGCLVSSYMPEPVTVTWNSGALTSGVHTFPAILQSSGLYSLSSVVTVPASTSGAQTFICNVAHPASSTKVDKRVEPGCPDPCKHCRCPPPELPGGPSVFIFPPKPKDTLTISGTPEVTCVVVDVGQDDPEVQFSWFVDNVEVRTARTKPREEQFNSTFRVVSALPIQHQDWTGGKEFKCKVHNEGLPAPIVRTISRTKGQAREPQVYVLAPPQEELSKSTLSVTCLVTGFYPDYIAVEWQKNGQPESEDKYGTTTSQLDADGSYFLYSRLRVDKNSWQEGDTYACVVMHEALHNHYTQKSISKPPGK
light: QAVLTQPSSVSRSLGQTVSITCSGSSDNVGFGDYVNWFQLIPGSAPKTLIFGATSRIRGVPDRFSGSRSGNTATLTINSLQAEDEADYYCGSANSRNYVFGSGTRLTVLSQPKSAPSVTLFPPSKEELDTNKATVVCLISDFYPGSVNVVWKADGSTINQNVKTTQASKQSNSKYAASSYLTLTGSEWKSKSSYTCEVTHEGSTVTKTVKPSECS
B9: Mutation 1-10 (antibody, V domains shown)
VH: QVRLQESGPSQVKPAQTLSLTCAISGFSITTYYLDWVRHTPGKPPEWLAQMTKDGNAVHNPTIRSRLSITRDTSKSQVFLKLTGVTTEDTAVYYCVRGVIDWGPGLLVTVSS
VL: QAVLTQPSSVSRSLGQTVSITCSGSSDQVGFGDYLNWFQLIPGSAPKTLIFGASSRLRGVPDRFSGSRSGNTATLTINSLQAEDEADYYCGSANSRNYVFGSGTRLTVLS
B10: Mutation 1-1 (antibody)
heavy: QVRLQESGPSQVKPAQTLSLTCAISGFSITTYYLDWVRHTPGKPPEWLAQMTKDGNAVHNPTIRSRLSITRDTSKSQVFLKLTGVTTEDTAVYYCVRGIIDFGPGLLVTVSSASTTPPKVYPLTSCCGDTSSSIVTLGCLVSSYMPEPVTVTWNSGALTSGVHTFPAILQSSGLYSLSSVVTVPASTSGAQTFICNVAHPASSTKVDKRVEPGCPDPCKHCRCPPPELPGGPSVFIFPPKPKDTLTISGTPEVTCVVVDVGQDDPEVQFSWFVDNVEVRTARTKPREEQFNSTFRVVSALPIQHQDWTGGKEFKCKVHNEGLPAPIVRTISRTKGQAREPQVYVLAPPQEELSKSTLSVTCLVTGFYPDYIAVEWQKNGQPESEDKYGTTTSQLDADGSYFLYSRLRVDKNSWQEGDTYACVVMHEALHNHYTQKSISKPPGK
light: QAVLTQPSSVSRSLGQTVSITCSGSSDQVGFGDYLNWFQLIPGSAPKTLIFGATSRLRGVPDRFSGSRSGNTATLTINSLQAEDEADYYCGSPNSRNYVFGSGTRLTVLSQPKSAPSVTLFPPSKEELDTNKATVVCLISDFYPGSVNVVWKADGSTINQNVKTTQASKQSNSKYAASSYLTLTGSEWKSKSSYTCEVTHEGSTVTKTVKPSECS

The test concerns the target T1, Recombinant NT antigen (N-terminal …). The experiment in a line: indirect ELISA, KD calculated from half-max OD at 4 coating concentrations. The procedure:
Recombinant NT antigen was diluted with coating solution to 1 μg/ml a microplate overnight at 4° C.; which was washed twice with washing solution and patted dry on the next day; with addition of blocking solution (20% BSA+80% PBS) at 120 μL per well at 37° C. for 1 h and patted dry; added the diluted NT monoclonal antibody, 100 μL/well at 37° C. for 30 min (partial supernatant for 1 h); washed 5 times with washing solution and patted dry; added rabbit anti-goat IgG-HRP […] per well at 37° C. for 30 min; washed 5 times with washing solution and patted dry; added color developing solution A (50 μL/well), added color developing solution B (50 μL/well) for 10 min; added stop solution, 50 μL/well; followed by reading the OD value at 450 nm (reference 630 nm) on the microplate reader.
Data from the enzyme immunoassay indirect method were analyzed in the same way as the activity identification, with four gradients of 3 μg/ml, 1.5 μg/ml, 0.75 μg/ml and 0.375 μg/ml for coating; the antibody was diluted from 1000 ng/ml by 2 times to 0.977 ng/ml for loading sample. OD values corresponding to different antibody concentrations at different coating concentrations were obtained. Under the same coating concentration, data were plotted logarithmically with the antibody concentration as the abscissa and the OD value as the ordinate.
B1: the Kd is 1.73 nM.

For the molecule B2, the Kd was 22.6 nM. Consider B3, for which the Kd is 1.52 nM. With B4 the figure was 2.09 nM; with B5, 2.16 nM; with B6, 1.53 nM. For B7, the Kd is 2.07 nM. With B8, the Kd is 1.76 nM. The value for B9 was 3.2 nM; that for B10 was 2.51 nM.
